Measured values: article PMC8617079
Like-named read-outs stand apart in the source and are kept apart here.

How the values were obtained:
[1] = biological target: 26S proteasome (mouse (endogenous in striatum and hippocampus tissue)) (UniProt P62196); assay: co-IP
[2] = biological target: 26S proteasome (mouse (endogenous in striatum and hippocampus tissue)) (UniProt P62196); assay: co-IP; remark: listed apart in the source

UniProt P62196, sequence (P62196 whole entry, looked up): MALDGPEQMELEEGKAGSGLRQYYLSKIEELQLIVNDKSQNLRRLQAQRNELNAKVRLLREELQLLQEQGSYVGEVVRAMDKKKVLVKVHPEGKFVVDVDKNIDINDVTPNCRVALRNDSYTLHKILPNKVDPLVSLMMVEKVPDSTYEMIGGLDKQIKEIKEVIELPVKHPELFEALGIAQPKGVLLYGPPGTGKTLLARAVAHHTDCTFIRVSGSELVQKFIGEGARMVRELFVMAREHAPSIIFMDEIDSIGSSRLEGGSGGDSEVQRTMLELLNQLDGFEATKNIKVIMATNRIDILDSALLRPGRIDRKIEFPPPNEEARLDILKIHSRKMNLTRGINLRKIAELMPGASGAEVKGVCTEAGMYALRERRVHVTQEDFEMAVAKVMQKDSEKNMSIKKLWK

Substance “gamma-enolase (ENO2) (from UniProt P17183 1-434) (natural protein)” has a pixel total of the Eno2 band [1] of 12400 pixels and a pixel total of the Eno2 band [2] of 9430 pixels.
